# From article PMC7737156, “A 3.4-Å cryo-electron microscopy structure of the human coronavirus spike trimer computationally derived from vitrified NL63 virus particles” (QRB Discovery, 2020)
# B1: HCoV-NL63 coronavirus spike glycoprotein (natural protein)
# chain: CNSNANLSMLQLGVPDNSSTIVTGLLPTHWFCANQSTSVYSANGFFYIDVGNHRSAFALHTGYYDANQYYIYVTNEIGLNASVTLKICKFSRNTTFDFLSNASSSFDCIVNLLFTEQLGAPLGITISGETVRLHLYNVTRTFYVPAAYKLTKLSVKCYFNYSCVFSVVNATVTVNVTTHNGRVVNYTVCDDCNGYTDNIFSVQQDGRIPNGFPFNNWFLLTNGSTLVDGVSRLYQPLRLTCLWPVPGLKSSTGFVYFNATGSDVNCNGYQHNSVVDVMRYNLNFSANSLDNLKSGVIVFKTLQYDVLFYCSNSSSGVLDTTIPFGPSSQPYYCFINSTINTTHVSTFVGILPPTVREIVVARTGQFYINGFKYFDLGFIEAVNFNVTTASATDFWTVAFATFVDVLVNVSATNIQNLLYCDSPFEKLQCEHLQFGLQDGFYSANFLDDNVLPETYVALPIYYQHTDINFTATASFGGSCYVCKPHQVNISLNGNTSVCVRTSHFSIRYIYNRVKSGSPGDSSWHIYLKSGTCPFSFSKLNNFQKFKTICFSTVEVPGSCNFPLEATWHYTSYTIVGALYVTWSEGNSITGVPYPVSGIREFSNLVLNNCTKYNIYDYVGTGIIRSSNQSLAGGITYVSNSGNLLGFKNVSTGNIFIVTPCNQPDQVAVYQQSIIGAMTAVNESRYGLQNLLQLPNFYYVSNGGNNCTTAVMTYSNFGICADGSLIPVRPRNSSDNGISAIITANLSIPSNWTTSVQVEYLQITSTPIVVDCATYVCNGNPRCKNLLKQYTSACKTIEDALRLSAHLETNDVSSMLTFDSNAFSLANVTSFGDYNLSSVLPQRNIRSSRIAGRSALEDLLFSKVVTSGLGTVDVDYKSCTKGLSIADLACAQYYNGIMVLPGVADAERMAMYTGSLIGGMVLGGLTSAAAIPFSLALQARLNYVALQTDVLQENQKILAASFNKAINNIVASFSSVNDAITQTAEAIHTVTIALNKIQDVVNQQGSALNHLTSQLRHNFQAISNSIQAIYDRLDSIQADQQVDRLITGRLAALNAFVSQVLNKYTEVRGSRRLAQQKINECVKSQSNRYGFCGNGTHIFSIVNSAPDGLLFLHTVLLPTDYKNVKAWSGICVDGIYGYVLRQPNLVLYSDNGVFRVTSRVMFQPRLPVLSDFVQIYNCNVTFVNISRVELHTVIPDYVDVNKTLQEFAQNLPKYVKPNFDLTPFNLTYLNLSSELKQLEAKTASLFQTTVELQGLIDQINSTYVDLKLLNRFENYIKWPWWVWLIISVVFVVLLSLLVFCCLSTGCCGCCNCLTSSMRGCCDCGSTKLPYYEFEKVHVQ
# modifications: glycosylated; N-linked glycan density at Asn24 and Asn203 and O-linked glycan density at Ser496 newly seen here, besides the glycan sites seen before in EMD-8331
# notes: Spike glycoprotein of human coronavirus NL63, membrane-anchored on native virions, pre-fusion state; model built from PDB 5SZS with residues 883-889 and 993-1000 added; Native spike on the virion, no stabilising mutations and no tags; the cited ectodomain structure PDB 5SZS is another construct (purified ectodomain made in insect cells); also called S trimer; HCoV-NL63 spike (S) trimer; source: …
# Target: the molecule itself
# Experiment: cryo-EM structure; single-particle cryo-EM of purified, vitrified HCoV-NL63 virions without chemical fixative; spikes extracted computationally from the micrographs; refined with C3 symmetry (3.4 Å) and without (3.7 Å); virus resuspension buffer 20 mM Tris pH 8.0, 120 mM NaCl, 1 mM EDTA
protein,measurement,value
B1,stoichiometry N,3
